Laboratory results: PMC7791793

Experiments:
[1] = target: human ether-à-go-go-related gene potassium channel 1 (hERG), stable HEK 293 cell line (human) (UniProt Q12809)
[2] = target: human ether-à-go-go-related gene potassium channel 1 (hERG), wild type, in Xenopus laevis oocytes (human) (UniProt Q12809); assay: two-electrode voltage clamp (fraction of uninhibited tail currents)
[3] = target: human ether-à-go-go-related gene potassium channel 1 (hERG), wild type, in Xenopus laevis oocytes (human) (UniProt Q12809)

Substance: recombinant APETx1 (wild type) (peptide)
- toxin-induced shift of the half-maximal activation voltage (ΔV1/2) of hERG, whole-cell patch clamp, APETx1 0.1-10 μM; value at 10 μM [1]: 23.9 mV
- apparent Kd, model (A): four equivalent and independent binding sites per channel, fractional toxin-sensitive current [2]: 1.2 µM
- apparent Kd, model (B): four equivalent and independent binding sites per channel, fully toxin-sensitive current [2]: 1.7 µM
- apparent Kd, model (C): one binding site per channel, fractional toxin-sensitive current [2]: 0.23 µM
- toxin-induced shift of the half-maximal activation voltage (ΔV1/2) of hERG, TEVC recordings in oocytes, APETx1 0.1-10 μM; value at 10 μM [3]: 21.9 mV
